Laboratory results taken from PMC6694467.

Target: monomeric PKG Iβ that lacks the dimerization domain
Experiment: crystal structure; PKG Iβ holoenzyme lacking the dimerization domain, 2.3 Å; inhibited state

monomeric PKG Iβ that lacks the dimerization domain (domain or fragment)
stoichiometry N: 2
